Measured values reported in FireProtDB (doi:10.1016/s0022-2836(99)80018-7).

B1: Ribonuclease, P00648 (parent)
chain: MMKMEGIALKKRLSWISVCLLVLVSAAGMLFSTAAKTETSSHKAHTEAQVINTFDGVADYLQTYHKLPDNYITKSEAQALGWVASKGNLADVAPGKSIGGDIFSNREGKLPGKSGRTWREADINYTSGFRNSDRILYSSDWLIYKTTDHYQTFTKIR

Variants of: B1
Conditions: Bacillus amyloliquefaciens; pH 6.3; 25 °C; Urea; Fluorescence; MES 50 mM; reversible: yes; structure 1BNI; whole UniProt chain shown

For MMKMEGIALKKRLSWISVCLLVLVSAAGMLFSTAAKTETSSHKAHTEAQVINTFAGVAAYLQTYHKLPDNYITKSEAQALGWVASKGNLADVAPGKSIGGDIFSNREGKLPGKSGRTWREADINYTSGFRNSDRILYSSDWLIYKTTDHYQTFTKIA [D55A D59A R157A], the “ddG of mutation (higher = less stable)” value was -0.11 kcal/mol, the denaturant m value was 2.16 kcal/mol/M and the “denaturant midpoint (higher = more stable)” value (“denaturant midpoint” below) was 4.63 M. The unfolding free energy was 10 kcal/mol.

For MMKMEGIALKKRLSWISVCLLVLVSAAGMLFSTAAKTETSSHKAHTEAQVINTFAGVAAYLQTYHKLPDNYITKSEAQALGWVASKGNLADVAPGKSIGGDIFSNREGKLPGKSGRTWREADINYTSGFRNSDRILYSSDWLIYKTTDHYQTFTKIR [D55A D59A], the “ddG of mutation (higher = less stable)” value was 0.89 kcal/mol, the denaturant m value was 1.98 kcal/mol/M and the “denaturant midpoint” value was 4.16 M. For the same variant, the unfolding free energy was 9.04 kcal/mol.

For MMKMEGIALKKRLSWISVCLLVLVSAAGMLFSTAAKTETSSHKAHTEAQVINTFDGVAAYLQTYHKLPDNYITKSEAQALGWVASKGNLADVAPGKSIGGDIFSNREGKLPGKSGRTWREADINYTSGFRNSDRILYSSDWLIYKTTDHYQTFTKIA [D59A R157A], the “ddG of mutation (higher = less stable)” value was -0.45 kcal/mol, the denaturant m value was 2.14 kcal/mol/M and the “denaturant midpoint” value was 4.78 M. For the same variant, the unfolding free energy was 10.4 kcal/mol.

For MMKMEGIALKKRLSWISVCLLVLVSAAGMLFSTAAKTETSSHKAHTEAQVINTFDGVADYLQTYHKLPDNYITKSEAQALGWVASKGNLADVAPGKSIGGDIFSNREGKLPGKSGRTWREADINYTSGFRNSDRILYSSDWLIYKTTDHYQTFTKIA [R157A], the “ddG of mutation (higher = less stable)” value was 0.46 kcal/mol, the denaturant m value was 2.26 kcal/mol/M and the “denaturant midpoint” value was 4.37 M. It also gave an unfolding free energy of 9.47 kcal/mol.

In the case of MMKMEGIALKKRLSWISVCLLVLVSAAGMLFSTAAKTETSSHKAHTEAQVINTFDGVAAYLQTYHKLPDNYITKSEAQALGWVASKGNLADVAPGKSIGGDIFSNREGKLPGKSGRTWREADINYTSGFRNSDRILYSSDWLIYKTTDHYQTFTKIR [D59A], the “ddG of mutation (higher = less stable)” value is reported as 0.34 kcal/mol, the denaturant m value is reported as 2.12 kcal/mol/M and the “denaturant midpoint” value is reported as 4.42 M. For the same variant, the unfolding free energy was 9.59 kcal/mol.

For MMKMEGIALKKRLSWISVCLLVLVSAAGMLFSTAAKTETSSHKAHTEAQVINTFAGVADYLQTYHKLPDNYITKSEAQALGWVASKGNLADVAPGKSIGGDIFSNREGKLPGKSGRTWREADINYTSGFRNSDRILYSSDWLIYKTTDHYQTFTKIR [D55A], the “ddG of mutation (higher = less stable)” value was 0.99 kcal/mol, the denaturant m value was 2.15 kcal/mol/M and the “denaturant midpoint” value was 4.12 M. It also gave an unfolding free energy of 8.94 kcal/mol.

With MMKMEGIALKKRLSWISVCLLVLVSAAGMLFSTAAKTETSSHKAHTEAQVINTFAGVADYLQTYHKLPDNYITKSEAQALGWVASKGNLADVAPGKSIGGDIFSNREGKLPGKSGRTWREADINYTSGFRNSDRILYSSDWLIYKTTDHYQTFTKIA [D55A R157A] the “ddG of mutation (higher = less stable)” value was 0.47 kcal/mol, the denaturant m value was 1.96 kcal/mol/M and the “denaturant midpoint” value was 4.36 M. For the same variant, the unfolding free energy was 9.46 kcal/mol.
